# US8722856B2, “Anti-MUC1 antibody” (National University Corporation Hokkaido University, priority 2008, dated 2014)
# B1: 1B2: mouse monoclonal anti-MUC1 antibody, isotype IgG2a, clone from immunization with 2,3-ST(DT*R)-20 conjugated to BSA (antibody, V domains shown)
# VH: MEWIWIFLFILSGTAGVQSQVQLQQSGAELARPGASVKLSCKASGYTFTNYGLSWVKQRTGQGLEWIGENHPGSGIIYHNEKFRGKATLTADKSSSTAYVQLSSLTSEDSAVYFCARSSGTRGFAYWGQGTLVTVSA
# VL: MKLPVRLLVLMFWIPASSSDVLMTQTPLSLPVSLGDQASISCRSSQSIVHSNGNTYLEWYLQKPGQSPKLLIYKVSNRFSGVPDRFSGSGSGTDFTLKISRVEAEDLGVYYCFQGSHGPWTFGGGTKLEIKRA
# modifications: Antibody 1B2 VH sequence; Antibody 1B2 VL sequence
# Columns and labels:
# [1] = test system: Biotin-Tn(DT*R)-20, -40, -60, -80, -100 (Compound Nos. 17-21); assay: Tandem repeat dependency ELISA on Streptavidin solid-phased plate; type: binding
# Experimental: To each well of a 384-well microtiter plate (manufactured by Nunc) 35 μl of a Tris buffer (50 mM Tris-HCl, pH 7.5) containing 0.35 μg of Streptavidin (manufactured by PIERCE) was added to perform immobilization at 4° C. for 16 hours. After these wells were washed with 90 μl of a washing solution (physiological saline containing 0.01% Tween 20) once, 200 μl of Block Ace (manufactured by Dainippon Sumitomo Pharma Co., Ltd.) was added, and this was allowed to stand at room temperature for 2 hours, to perform blocking (a Streptavidin solid-phased plate). […] Then, after each well was washed with 90 μl of a washing solution three times, 15 μl of TMB+-Substrate-Chromogen (manufactured by DAKO) was added to develop a color at room temperature for 30 minutes, 15 μl of 0.05 M sulfuric acid was added to stop the reaction, and absorbance at 450 nm was measured. […] Therefore, the antibody of the present invention can be said to have an affinity for Tn-100-mer biotin of lower than 1.0×10^−9 (M), and can be said to have the ability to bind to a Tn20-mer tandem structure fragment. More particularly, it can also be said that the antibody of the present invention has a ratio (A100/A20) of absorbance at 450 nm in the case of use of Tn20-mer biotin (A20) and absorbance at 450 nm in the case of use of Tn100-mer biotin (A100), of 2 or lower.
# [2] = test system: human mammary gland epithelial cell 184A1; assay: Binding of antibody to cell with FACS; type: cell-based
# Experimental: (§1) Whether the MUC1 protein expressed on a surface of a cancer cell membrane and the 1B2 antibody bound thereto was investigated by FACS. A human breast cancer cell strain T-47D (ATCC, HTB-133) and a human mammary gland epithelial cell 184A1 (ATCC, CRL-8798) which had been trypsinized with Trypsin (manufactured by Invitrogen) were washed once with a FACS buffer (PBS containing 5% FCS, 0.05% sodium azide), and suspended in 100 μl of a FACS buffer containing 10 μg/ml 1B2 antibody and the reaction was allowed to proceed at room temperature for 2 hours. The resultant reaction product was washed with a FACS buffer two times, and suspended in 200 μl of FITC-Goat Anti-Mouse IgG (manufactured by ZYMED), and the reaction was allowed to proceed at room temperature for 1 hour. After washing with a FACS buffer two times, analysis was performed by FACSAria (manufactured by BD). As a result, in T-47D, the 1B2 antibody greatly shifted the fluorescent signal of FACS (about 300-fold) as compared with a control mouse IgG2a antibody (manufactured by SIGMA-ALDRICH), while in 184A, fluorescent shift by 1B2 was scarcely seen (about 2-fold).
# [3] = test system: normal tissue around a breast cancer; assay: Immunological tissue staining; design: species or system human; conditions: formalin-fixed, paraffin-embedded normal tissue around the breast cancer
# Description: (§2) Immunological tissue staining of the 1B2 antibody to a piece of a human breast cancer tissue and a normal tissue around a breast cancer (BioCahin) which had been formalin-fixed and paraffin-embedded was implemented using the Vectastain elite ABC kit (manufactured by Vector Laboratories) and DAB (manufactured by Roche) according to the attached manual.
# [4] = molecular target: T1, Biotin-Tn(DT*R)-100 (Compound No. 21) (Homo sapiens, UniProt P15941); assay: Affinity of antibody, Biacore T100, sensor chip SA; type: binding; conditions: Biotin-Tn(DT*R)-100 solid-phased
# T1 construct: made in house; host or cells: chemical solid-phase synthesis
# Description: Biotin-Tn(DT*R)-100 (Compound No. 21) was solid-phased on a sensor chip SA (manufactured by GE Healthcare), and a dissociation constant of each of the following MUC1 antibody, 1B2, PankoMab (manufactured by GLYCOPOPE) currently at a pre-clinical stage, VU-2G7 (manufactured by MONOSAN) which is an antibody obtained by glycopeptide immunization, O.N.272 (manufactured by SantaCruz), C595 (manufactured by Acris), B416 (manufactured by GeneTex), and VU-3C6 (manufactured by Exalpha Biologicals) was analyzed using Biacore T100, and the result was as shown in the following Table 3.
# [5] = test system: human breast cancer cell strain T-47D; assay: Binding of antibody to cancer cell with FACS; type: cell-based
# Experimental: as §1
# [6] = molecular target: T2, Biotin-2,3-ST(DT*R)-20 (Compound No. 16) (Homo sapiens, UniProt P15941); assay: Hybridoma screening ELISA (selection of MUC1 antibody); type: binding; conditions: hybridoma culture supernatant
# T2 construct: Synthesis of MUC1 Tn20-mer Glycopeptide; made in house; host or cells: chemical solid-phase synthesis with enzymatic sialylation
# Experimental: Ten days after cell fusion, screening of a specific antibody-producing cell was performed. ELISA was used in screening is as follows. To each well of a 384-well microtiter plate (manufactured by Nunc) 35 μl of a Tris buffer (50 mM Tris-HCl, pH 7.5) containing 0.35 μg of an anti-mouse IgG antibody (manufactured by Shibayagi Co., Ltd.) was added to immobilize the antibody at 4° C. for 16 hours. After these wells were washed with 90 μl of a washing solution (physiological saline containing 0.01% Tween 20) once, 200 μl of BLOCK ACE (manufactured by Dainippon Sumitomo Pharma Co., Ltd.) was added, and this was allowed to stand at room temperature for 2 hours for blocking (an anti-mouse IgG antibody solid-phased plate). […] Then, after each well was washed with 90 μl of a washing solution three times, 25 μl of TMB+-Substrate-Chromogen (manufactured by DAKO) was added to develop a color at room temperature for 30 minutes, 25 μl of 0.05 M sulfuric acid was added to stop the reaction, and absorbance was measured at 450 nm. […] Using a mouse monoclonal antibody isotyping ELISA kit (manufactured by BD Bioscience), a subclass of the antibody was determined and, as a result, an isotype of 1B2 was IgG2a.
# [7] = test system: human breast cancer tissue; assay: Immunological tissue staining; conditions: formalin-fixed, paraffin-embedded breast cancer tissue
# Description: as §2
# T1 sequence (P15941 136-235): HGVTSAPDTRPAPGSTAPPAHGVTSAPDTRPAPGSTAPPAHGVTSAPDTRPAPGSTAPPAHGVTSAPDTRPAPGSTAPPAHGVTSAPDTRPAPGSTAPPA
# T2 sequence (P15941 136-155): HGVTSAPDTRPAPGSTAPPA
molecule,measurement,setting,value
B1,reactivity by peptide chain length,"[1]; Biotin-Tn(DT*R)-40, -60, -80, -100",approximately the same reactivity
same,dependency on the length of the tandem repeat,"[1]; absorbance at 450 nm, 20-mer to 100-mer",low dependency on a length of the tandem repeat
same,reaction with mammary gland epithelial cell (FACS),[2]; 184A1,hardly reacts
same,shift of fluorescent signal of FACS as compared with control mouse IgG2a antibody,"[2]; 184A1, 10 μg/ml antibody",about 2 fold
same,stained image,[3],scarcely recognized
same,Kd1,[4],0.00015 s⁻¹
same,ka1,[4],410000 M⁻¹ s⁻¹
same,Kd,[4]; read-out: dissociation constant KD,0.37 nM
same,reaction with breast cancer cell (FACS),[5],strongly reacts
same,shift of fluorescent signal of FACS as compared with control mouse IgG2a antibody,[5]; 10 μg/ml antibody,about 300 fold
same,"affinity for 2,3-ST(DT*R)-20 in screening",[6],strong affinity
same,stained image,[7],recognized
